Measured values reported in paper PMC7517009, “Variants of the human RAD52 gene confer defects in ionizing radiation resistance and homologous recombination repair in budding yeast” (Microbial Cell, 2020).
Changes are numbered by the printed parent chain. Names may count otherwise. “And” between values parts separate entries of the source, which are not always exact repeats. Equal values may be shown once.

B1: HsRAD52_(1-212), the N-terminal 212 amino acids of HsRAD52 (domain or fragment, human, UniProt P43351 1-212, looked up)
chain: MSGTEEAILGGRDSHPAAGGGSVLCFGQCQYTAEEYQAIQKALRQRLGPEYISSRMAGGGQKVCYIEGHRVINLANEMFGYNGWAHSITQQNVDFVDLNNGKFYVGVCAFVRVQLKDGSYHEDVGYGVSEGLKSKALSLEKARKEAVTDGLKRALRSFGNALGNCILDKDYLRSLNKLPRQLPLEVDLTKAKRQDLEPSVEEARYNSCRPNM
notes: RAD52, human, N-terminal 212 amino acids (1-212); pET28b construct; also called pLAY855; source: E. coli Artic Express, purified (Ni-NTA, heparin, Superdex 200)
B2: HsRAD52-G59R_(1-212), the N-terminal 212 amino acids of HsRAD52-G59R (domain or fragment, human, UniProt P43351 1-212, looked up)
chain: B1 chain with G59R
notes: RAD52, human, N-terminal 212 amino acids (1-212) with the naturally occurring variant G59R; pET28b construct; also called pLAY971; source: E. coli Artic Express, purified (Ni-NTA, heparin, Superdex 200)
B3: HsRAD52 (human RAD52), wild type, Gal4 fusion proteins (natural protein, UniProt P43351 1-418, looked up)
chain: MSGTEEAILGGRDSHPAAGGGSVLCFGQCQYTAEEYQAIQKALRQRLGPEYISSRMAGGGQKVCYIEGHRVINLANEMFGYNGWAHSITQQNVDFVDLNNGKFYVGVCAFVRVQLKDGSYHEDVGYGVSEGLKSKALSLEKARKEAVTDGLKRALRSFGNALGNCILDKDYLRSLNKLPRQLPLEVDLTKAKRQDLEPSVEEARYNSCRPNMALGHPQLQQVTSPSRPSHAVIPADQDCSSRSLSSSAVESEATHQRKLRQKQLQQQFRERMEKQQVRVSTPSAEKSEAAPPAPPVTHSTPVTVSEPLLEKDFLAGVTQELIKTLEDNSEKWAVTPDAGDGVVKPSSRADPAQTSDTLALNNQMVTQNRTPHSVCHQKPQAKSGSWDLQTYSADQRTTGNWESHRKSQDMKKRKYDPS
notes: RAD52, human, wild type; no chain carries both; Probably the whole protein; also called pGBT9-HsRAD52; pGAD424-HsRAD52; source: yeast two-hybrid fusion, yeast strain Y187
B4: HsRAD52-S346X, His-tagged, bacterially expressed (domain or fragment, human, UniProt P43351 1-345, looked up)
chain: MSGTEEAILGGRDSHPAAGGGSVLCFGQCQYTAEEYQAIQKALRQRLGPEYISSRMAGGGQKVCYIEGHRVINLANEMFGYNGWAHSITQQNVDFVDLNNGKFYVGVCAFVRVQLKDGSYHEDVGYGVSEGLKSKALSLEKARKEAVTDGLKRALRSFGNALGNCILDKDYLRSLNKLPRQLPLEVDLTKAKRQDLEPSVEEARYNSCRPNMALGHPQLQQVTSPSRPSHAVIPADQDCSSRSLSSSAVESEATHQRKLRQKQLQQQFRERMEKQQVRVSTPSAEKSEAAPPAPPVTHSTPVTVSEPLLEKDFLAGVTQELIKTLEDNSEKWAVTPDAGDGVVKP
notes: RAD52, human, naturally occurring truncating variant S346X (stop codon in place of S346); pET28b construct; also called pLAY970; source: E. coli Artic Express, purified (Ni-NTA, heparin, Superdex 200)

What was measured:
[1] = molecular target: the molecule itself; test: SEC; Superdex 200 in 10 mM Tris HCl, 300 mM NaCl, 2 mM BME, pH 8.0, 0.5 mL/min; size of the multimer estimated from the elution volume
[2] = molecular target: the molecule itself; test: two-hybrid; Gal4 DNA-binding domain (pGBT9) and Gal4 transcription activation domain (pGAD424) fusions in yeast strain Y187; beta-galactosidase specific activity in cell extracts, Miller units

Protein	stoichiometry N [1]	beta-galactosidase activity, fold above background [2]
B1	13 subunits and 14 subunits	
B2	13 subunits and 14 subunits	
B3		80 fold
B4	~6 subunits and ~8 subunits	
